Reference: article PMC8563363

Columns and labels:
Assay in all cases: EMSA
[1] = biological target: T1, SMC3 head (Halo-SMC3HD-SCC1(Nt)) (Homo sapiens, UniProt Q9UQE7 1-251+=GGGGG+956-1216+=[…]+O60216:2-75, internal_change)
T1 sequence: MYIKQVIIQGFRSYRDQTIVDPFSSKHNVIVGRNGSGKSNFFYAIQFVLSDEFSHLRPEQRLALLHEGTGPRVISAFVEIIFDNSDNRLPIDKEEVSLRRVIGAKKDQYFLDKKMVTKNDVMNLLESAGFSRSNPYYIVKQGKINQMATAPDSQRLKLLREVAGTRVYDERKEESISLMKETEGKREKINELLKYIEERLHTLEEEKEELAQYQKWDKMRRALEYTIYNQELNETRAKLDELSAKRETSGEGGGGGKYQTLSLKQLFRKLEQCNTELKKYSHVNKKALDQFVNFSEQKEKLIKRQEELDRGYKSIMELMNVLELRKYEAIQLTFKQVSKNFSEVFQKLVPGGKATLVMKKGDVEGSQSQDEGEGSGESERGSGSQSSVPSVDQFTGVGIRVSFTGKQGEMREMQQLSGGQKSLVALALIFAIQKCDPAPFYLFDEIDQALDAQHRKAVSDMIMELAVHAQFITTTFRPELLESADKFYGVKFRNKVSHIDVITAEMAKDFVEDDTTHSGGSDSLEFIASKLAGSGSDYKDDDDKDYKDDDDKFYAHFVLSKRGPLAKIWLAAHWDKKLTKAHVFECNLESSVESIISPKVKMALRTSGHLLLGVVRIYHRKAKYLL

SMC1 head 4E = biological target: T2, SMC1 head 4E (Homo sapiens, UniProt Q14683;O60216 1-200+=GGGGG+1030-1233;531-631, K52E;R57E;K59E;R62E;internal_change)
T2 sequence 1: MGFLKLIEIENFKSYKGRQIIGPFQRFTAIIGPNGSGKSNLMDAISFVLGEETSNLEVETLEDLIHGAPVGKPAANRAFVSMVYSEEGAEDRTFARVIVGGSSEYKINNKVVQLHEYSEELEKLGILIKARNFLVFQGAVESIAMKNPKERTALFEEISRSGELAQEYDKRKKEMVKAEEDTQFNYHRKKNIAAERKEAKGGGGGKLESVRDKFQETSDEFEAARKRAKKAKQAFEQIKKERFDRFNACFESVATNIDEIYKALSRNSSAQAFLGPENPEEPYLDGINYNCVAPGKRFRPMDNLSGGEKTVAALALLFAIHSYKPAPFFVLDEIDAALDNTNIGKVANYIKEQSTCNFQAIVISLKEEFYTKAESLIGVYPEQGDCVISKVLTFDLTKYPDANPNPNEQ
T2 sequence 2: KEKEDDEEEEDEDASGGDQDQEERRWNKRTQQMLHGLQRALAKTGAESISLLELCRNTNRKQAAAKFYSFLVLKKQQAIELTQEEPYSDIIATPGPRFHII

deltaN-STAG1/SCC1(int) = biological target: T3, deltaN-STAG1/SCC1(int) (Homo sapiens, UniProt Q8WVM7;O60216 71-1258;281-420)
T3 sequence 1: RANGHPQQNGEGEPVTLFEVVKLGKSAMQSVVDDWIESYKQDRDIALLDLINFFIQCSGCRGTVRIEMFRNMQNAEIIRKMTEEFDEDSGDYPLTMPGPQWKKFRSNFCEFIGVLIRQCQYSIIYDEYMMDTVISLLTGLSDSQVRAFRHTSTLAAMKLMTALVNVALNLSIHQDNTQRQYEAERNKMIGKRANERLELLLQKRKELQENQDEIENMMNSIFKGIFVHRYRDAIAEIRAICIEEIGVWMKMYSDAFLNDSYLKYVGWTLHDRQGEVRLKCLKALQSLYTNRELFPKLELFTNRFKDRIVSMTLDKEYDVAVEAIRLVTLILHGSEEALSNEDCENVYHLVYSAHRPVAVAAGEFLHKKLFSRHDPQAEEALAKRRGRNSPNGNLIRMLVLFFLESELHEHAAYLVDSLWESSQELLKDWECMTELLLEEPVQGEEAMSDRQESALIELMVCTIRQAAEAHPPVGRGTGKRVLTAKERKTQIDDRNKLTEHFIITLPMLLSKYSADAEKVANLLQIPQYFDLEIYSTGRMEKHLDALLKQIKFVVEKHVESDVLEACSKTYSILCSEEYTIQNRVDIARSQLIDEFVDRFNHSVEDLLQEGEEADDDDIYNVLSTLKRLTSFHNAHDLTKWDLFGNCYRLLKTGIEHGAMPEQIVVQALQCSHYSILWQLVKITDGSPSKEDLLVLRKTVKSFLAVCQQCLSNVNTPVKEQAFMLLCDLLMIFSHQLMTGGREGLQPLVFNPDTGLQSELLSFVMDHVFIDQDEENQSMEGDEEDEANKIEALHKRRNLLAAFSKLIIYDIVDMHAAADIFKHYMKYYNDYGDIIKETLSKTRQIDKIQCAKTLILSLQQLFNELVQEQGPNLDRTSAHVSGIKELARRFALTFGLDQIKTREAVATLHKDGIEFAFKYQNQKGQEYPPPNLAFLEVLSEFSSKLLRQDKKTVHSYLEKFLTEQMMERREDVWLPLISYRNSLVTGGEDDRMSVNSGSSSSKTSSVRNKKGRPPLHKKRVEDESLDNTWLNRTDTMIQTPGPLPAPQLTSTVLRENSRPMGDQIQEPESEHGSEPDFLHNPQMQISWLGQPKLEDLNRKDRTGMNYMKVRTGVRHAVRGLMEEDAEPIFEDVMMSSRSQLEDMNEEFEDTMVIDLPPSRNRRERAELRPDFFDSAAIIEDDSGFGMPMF
T3 sequence 2: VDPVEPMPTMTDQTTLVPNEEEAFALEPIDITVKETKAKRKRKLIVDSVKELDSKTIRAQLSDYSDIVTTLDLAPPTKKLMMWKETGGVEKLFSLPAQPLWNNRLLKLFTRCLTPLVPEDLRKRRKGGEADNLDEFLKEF

deltaN-NIPBL2A = deltaN-NIPBL2A (Homo sapiens, UniProt Q6KC79 1-21+1041-2804, R1867A;K1870A;internal_change)
hinge (SMC1-SMC3) = hinge (SMC1-SMC3) (Homo sapiens, UniProt Q9UQE7;Q14683 484-696;461-685)
Chain of hinge (SMC1-SMC3) (Q9UQE7 484-696, chain 1 of 2): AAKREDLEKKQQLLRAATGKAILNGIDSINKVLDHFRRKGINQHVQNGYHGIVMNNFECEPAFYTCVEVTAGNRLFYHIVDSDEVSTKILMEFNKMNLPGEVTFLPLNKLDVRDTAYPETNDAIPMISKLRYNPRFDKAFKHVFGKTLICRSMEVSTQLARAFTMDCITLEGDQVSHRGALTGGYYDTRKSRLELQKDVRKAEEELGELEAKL
Chain of hinge (SMC1-SMC3) (Q14683 461-685, chain 2 of 2): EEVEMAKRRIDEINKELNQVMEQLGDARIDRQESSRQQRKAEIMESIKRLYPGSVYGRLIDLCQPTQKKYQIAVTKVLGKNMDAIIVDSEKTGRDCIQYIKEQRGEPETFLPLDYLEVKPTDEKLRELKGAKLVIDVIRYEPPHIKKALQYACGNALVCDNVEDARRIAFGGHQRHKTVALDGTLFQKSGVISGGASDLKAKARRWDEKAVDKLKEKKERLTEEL

B1: 40 bp dsDNA EMSA probe (dsDNA)
DNA 1: GCGGGTAATCCAGAGCCAGACGAGCACTACGAACAACTAA
DNA 2: TTAGTTGTTCGTAGTGCTCGTCTGGCTCTGGATTACCCGC
B1: binds [1]; no binding (SMC1 head 4E); binds (deltaN-STAG1/SCC1(int)). B1: no binding (deltaN-NIPBL2A); binds (hinge (SMC1-SMC3)).
